# Source: patent publication US9289444B2, “Composition for promoting hematogenesis containing quercetin 3-O-β-(2″-galloyl)-rhamnopyranoside as active ingredient” (Chungbuk National University Industry Academic Cooperation …, priority 2011, dated 2016)
# Tested on: BMNCs
# Assay: Histochemistry (Wright-Giemsa) and immunocytochemistry for erythroid cells (TER-119)
# Format: cell-based, mouse
# Details: 7 days culture, Wright-Giemsa staining
# Protocol: In order to investigate whether QGR can stimulate the differentiation of hematopoietic stem cells into erythroid cells, the morphology of cells was observed and immunocytochemistry against TER-119, the marker of erythroid progenitors, was carried out. BMNCs were harvested 7 days after incubation with either rEpo (3 units/ml) or QGR (100 or 200 μM/ml) washed with PBS, re-suspended at a concentration of 2×10^5 cells/ml in PBS and subjected (100 μl/slide) to cytospin for 5 min at 1,000 rpm (Cytospin3; Shandon, ThermoElectron, Waltham, Mass., USA). All slides were fixed using cold methanol. Wright-Giemsa stain was performed for morphologic analysis. Immunocytochemistry against TER-119 was carried out for cellular lineage with 100-fold dilution according to the manufacturer's instruction using avidin biotinylated enzyme complex kit (VECTASTAIN, Vector Laboratories and Burlingame, Calif., USA).
molecule,measurement,value
"positive control group: mouse recombinant Epo (rEpo, 3 units/ml), positive control in the erythroid differentiation tests (protein, UniProt P07321 27-192, looked up) Erythropoietin: APPRLICDSRVLERYILEAKEAENVTMGCAEGPRLSENITVPDTKVNFYAWKRMEVEEQAIEVWQGLSLLSEAILQAQALLANSSQPPETLQLHIDKAISGLRSLTSLLRVLGAQKELMSPPDTTPPAPLRTLTVDTFCKLFRVYANFLRGKLKLYTGEVCRRGDR",number of enucleated erythroid cells,increased
